Experimental data: patent US20220340660A1 (Merck Sharp & Dohme, published 2022)

Tests used:
[1] = molecular target: T1, recombinant mouse TIGIT protein (mouse, UniProt P86176 29-148, limits assumed); test: ELISA, plate coated with 1 µg/ml recombinant mouse TIGIT protein (FIG. 1B)
T1 construct: also called mTIGIT recombinant protein; mTIGIT
T1 sequence (looked up): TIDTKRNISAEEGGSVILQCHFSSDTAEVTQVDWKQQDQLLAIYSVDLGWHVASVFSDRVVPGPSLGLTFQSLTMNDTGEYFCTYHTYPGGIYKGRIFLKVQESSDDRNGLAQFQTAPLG
Description: (§1) FIG. 1A and FIG. 1B are graphs showing identification and characterization of anti-mouse TIGIT monoclonal antibody 18G10. FIG. 1A is a line graph showing binding of anti-mouse TIGIT, clone 18G10, was measured by a cell-based ELISA using mouse TIGIT-overexpressing CHO cells (mTIGIT/CHO). 18G10 was serially diluted as indicated. After 30 min. of incubation, unbound 18G10 antibody was washed out, and the bound 18G10 antibodies were detected using an anti-mouse IgG reagent (closed circles). When the 18G10 was bound in the indicated serial dilutions on mTIGIT/CHO, 8 μg/ml recombinant mouse CD155:hIgG1-Fc (rmCD155) was added to the plate in order to verify whether 18G10 blocked the interaction of rmCD155 with mTIGIT/CHO. After 40 minutes of incubation, unbound recombinant CD155 was washed out, and the bound recombinant CD155 was detected by anti-human IgG reagent (open circles). […] Chimeric anti-TIGIT (18G10):mIgG2a, anti-TIGHT (18G10):mIgG1-[D265A], and isotype controls with mIgG2a or mIgG1-[D265A] isotype were loaded to ELISA plates coated with 1 μg/ml of (left panel) recombinant mouse TIGIT protein or (right panel) goat anti-mouse IgG-Fc antibody. Bound antibodies to each plate were detected. Note: mIgG1* indicates mIgG1-[D265A].

[2] = molecular target: T2, mouse TIGIT on mouse TIGIT-overexpressing CHO cells (mouse, UniProt P86176 29-249); test: cell-based ELISA on mTIGIT/CHO cells, detected by anti-mouse IgG
T2 construct: whole, on cells; also called mTIGIT/CHO; mTIGIT
T2 sequence (looked up): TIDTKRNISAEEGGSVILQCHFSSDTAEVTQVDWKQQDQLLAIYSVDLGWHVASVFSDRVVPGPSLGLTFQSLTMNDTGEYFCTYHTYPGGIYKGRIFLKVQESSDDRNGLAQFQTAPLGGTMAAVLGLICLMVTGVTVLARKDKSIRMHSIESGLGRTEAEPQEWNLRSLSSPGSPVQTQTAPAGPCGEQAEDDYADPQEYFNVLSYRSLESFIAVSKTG
Description: as §1

B1: chimeric anti-TIGIT (18G10):mIgG2a (antibody)
heavy: QVQLMESGPGLVQPSQTLSLTCTVSGFPLTSYTVHWVRQPPGKGLEWIGAIWSSGSTDYNSALKSRLNINRDSSKSQVFLKMNSLQTEDTAIYFCTKSGWAFFDYWGQGVMVTVSSAKTTAPSVYPLAPVCGDTTGSSVTLGCLVKGYFPEPVTLTWNSGSLSSGVHTFPAVLQSDLYTLSSSVTVTSSTWPSQSITCNVAHPASSTKVDKKIEPRGPTIKPCPPCKCPAPNLLGGPSVFIFPPKIKDVLMISLSPIVTCVVVDVSEDDPDVQISWFVNNVEVHTAQTQTHREDYNSTLRVVSALPIQHQDWMSGKEFKCKVNNKDLPAPIERTISKPKGSVRAPQVYVLPPPEEEMTKKQVTLTCMVTDFMPEDIYVEWTNNGKTELNYKNTEPVLDSDGSYFMYSKLRVEKKNWVERNSYSCSVVHEGLHNHHTTKSFSRTPGK
light: DIQMTQSPSLLSASVGDRVTLNCIASQNIYKSLAWYQLKLGEAPKLLIYNANSLQAGIPSRFSGSGSGTDFALTISGLQPEDVATYFCQQYSGGYTFGAGTKLELKRADAAPTVSIFPPSSEQLTSGGASVVCFLNNFYPKDINVKWKIDGSERQNGVLNSWTDQDSKDSTYSMSSTLTLTKDEYERHNSYTCEATHKTSTSPIVKSFNRNEC
notes: Rat 18G10 variable domains on an intact mouse IgG2a backbone; also called anti-TIGIT:mIgG2a
- binding result [1]: binds

B2: chimeric anti-TIGIT (18G10):mIgG1-[D265A] (antibody)
heavy: QVQLMESGPGLVQPSQTLSLTCTVSGFPLTSYTVHWVRQPPGKGLEWIGAIWSSGSTDYNSALKSRLNINRDSSKSQVFLKMNSLQTEDTAIYFCTKSGWAFFDYWGQGVMVTVSSAKTTPPSVYPLAPGSAAQTNSMVTLGCLVKGYFPEPVTVTWNSGSLSSGVHTFPAVLQSDLYTLSSSVTVPSSTWPSETVTCNVAHPASSTKVDKKIVPRDCGCKPCICTVPEVSSVFIFPPKPKDVLTITLTPKVTCVVVAISKDDPEVQFSWFVDDVEVHTAQTQPREEQFNSTFRSVSELPIMHQDWLNGKEFKCRVNSAAFPAPIEKTISKTKGRPKAPQVYTIPPPKEQMAKDKVSLTCMITDFFPEDITVEWQWNGQPAENYKNTQPIMDTDGSYFVYSKLNVQKSNWEAGNTFTCSVLHEGLHNHHTEKSLSHSPGK
light: DIQMTQSPSLLSASVGDRVTLNCIASQNIYKSLAWYQLKLGEAPKLLIYNANSLQAGIPSRFSGSGSGTDFALTISGLQPEDVATYFCQQYSGGYTFGAGTKLELKRADAAPTVSIFPPSSEQLTSGGASVVCFLNNFYPKDINVKWKIDGSERQNGVLNSWTDQDSKDSTYSMSSTLTLTKDEYERHNSYTCEATHKTSTSPIVKSFNRNEC
notes: Rat 18G10 variable domains on a mouse IgG1 backbone with D265A; also called anti-TIGIT:mIgG1*
- binding result [1]: binds

B3: anti-mouse TIGIT monoclonal antibody 18G10 (antibody, V domains shown)
VH: QVQLMESGPGLVQPSQTLSLTCTVSGFPLTSYTVHWVRQPPGKGLEWIGAIWSSGSTDYNSALKSRLNINRDSSKSQVFLKMNSLQTEDTAIYFCTKSGWAFFDYWGQGVMVTVSS
VL: DIQMTQSPSLLSASVGDRVTLNCIASQNIYKSLAWYQLKLGEAPKLLIYNANSLQAGIPSRFSGSGSGTDFALTISGLQPEDVATYFCQQYSGGYTFGAGTKLELK
notes: also called anti-mouse TIGIT, clone 18G10; rat anti-mouse TIGIT (mTIGIT) antibody clone 18G10
- binding result [2]: binds
